# Reference: patent US20220267469A1 (LIPUM, published 2022)
# T1: Biotinylated human BSSL (human, UniProt P19835 21-753, Biotinylated on glycosacarides, 30-40 biotin/BSSL)
# T1 construct: hBSSL biotinylated in house; also called b-hBSSL; human BSSL-biotin
# T1 sequence: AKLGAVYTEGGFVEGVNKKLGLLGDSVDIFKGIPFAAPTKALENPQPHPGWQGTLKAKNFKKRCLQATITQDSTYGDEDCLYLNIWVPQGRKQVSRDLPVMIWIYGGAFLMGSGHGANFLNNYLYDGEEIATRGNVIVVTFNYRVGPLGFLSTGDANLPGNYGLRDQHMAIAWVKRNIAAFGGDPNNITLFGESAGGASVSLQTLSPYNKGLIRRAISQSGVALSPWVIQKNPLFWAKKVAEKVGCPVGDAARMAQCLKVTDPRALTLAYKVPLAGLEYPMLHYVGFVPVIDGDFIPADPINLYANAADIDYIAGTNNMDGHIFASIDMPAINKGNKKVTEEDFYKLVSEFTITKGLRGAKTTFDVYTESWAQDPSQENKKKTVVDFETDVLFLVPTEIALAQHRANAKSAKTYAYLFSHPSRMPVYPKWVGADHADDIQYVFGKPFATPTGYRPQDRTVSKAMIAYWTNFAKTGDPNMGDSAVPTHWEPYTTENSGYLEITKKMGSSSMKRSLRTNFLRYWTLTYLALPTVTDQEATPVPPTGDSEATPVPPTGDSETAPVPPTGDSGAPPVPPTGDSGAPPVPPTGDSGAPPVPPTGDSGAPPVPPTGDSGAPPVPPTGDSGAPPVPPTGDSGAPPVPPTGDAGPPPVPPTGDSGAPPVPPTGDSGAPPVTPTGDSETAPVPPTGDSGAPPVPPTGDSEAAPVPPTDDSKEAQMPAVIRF
# T2: Mouse BSSL, recombinant (mouse, UniProt Q64285 21-599)
# T2 construct: Bought (R&D Systems, Cat. no 5658-CE); also called mBSSL; murine BSSL
# T2 sequence: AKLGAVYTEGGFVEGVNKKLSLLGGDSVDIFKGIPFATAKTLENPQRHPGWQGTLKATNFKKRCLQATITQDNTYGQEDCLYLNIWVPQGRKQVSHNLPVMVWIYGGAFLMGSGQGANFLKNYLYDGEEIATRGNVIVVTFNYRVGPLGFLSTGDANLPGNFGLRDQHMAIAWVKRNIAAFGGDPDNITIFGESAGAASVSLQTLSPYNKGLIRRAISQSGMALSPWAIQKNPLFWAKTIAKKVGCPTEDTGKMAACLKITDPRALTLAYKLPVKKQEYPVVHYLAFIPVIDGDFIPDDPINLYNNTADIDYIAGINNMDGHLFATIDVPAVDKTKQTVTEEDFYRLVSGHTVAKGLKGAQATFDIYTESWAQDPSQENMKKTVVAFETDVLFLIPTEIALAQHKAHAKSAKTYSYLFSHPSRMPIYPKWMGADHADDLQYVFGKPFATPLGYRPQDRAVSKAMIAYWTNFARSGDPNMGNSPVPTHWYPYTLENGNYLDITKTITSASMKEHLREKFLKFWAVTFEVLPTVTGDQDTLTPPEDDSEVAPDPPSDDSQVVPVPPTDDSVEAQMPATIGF
# T3: Human BSSL (bile salt-stimulated lipase), native (human, UniProt P19835 21-753)
# T3 construct: Native full-length protein purified from human milk (Astra Hässle AB); also called hBSSL; non-biotinylated human BSSL
# T3 sequence: T1 sequence
# B1: AS20 mouse IgG1 (antibody, V domains shown)
# VH: QVQLQQPGAELVKPGASVKMSCKASGYTFTSYNMHWVKQTPGQGLEWIGVIYPGNGDTSYNQKFKGKATLTADKSSSTAYMQLSSLTSEDSAVYYCARDYYGSSPLGYWGQGTTLTVSS
# VL: QIVLTQSPAVMSASPGEKVTMTCSASSSISYMHWYQQKPGTSPKRWIYDTSKLASGVPARFSGSGSGTSYSLTISSMEAEDAATYYCHQRSSYPTFGGGTKLEIK
# notes: also called AS20 mlgG1; AS20 mIgG1
# Experiments:
# [1] = biological target: T1, Biotinylated human BSSL; experiment: flow cytometry displacement assay; 1.5 ug antibody, 1 ug b-hBSSL
# In short: (§1)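 Antibody (0.5–3.0 μg per reaction) preincubated with 1 μg biotinylated human BSSL in PBS pH 7.4, 30 min at 4 °C, then with human buffy coat 30 min at 4 °C. After erythrocyte lysis/fixation, bound BSSL on CD14+ monocytes detected by labelled streptavidin via flow cytometry.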
# [2] = biological target: T1, Biotinylated human BSSL; experiment: flow cytometry displacement assay; 0.5 ug antibody, 1 ug b-hBSSL
# Protocol: (§2) The 28 BSSL-specific hIgG4 antibodies and the five reference antibodies at different concentrations (ranging from 0.5 μg to 3.0 μg per reaction; see Table 10) were added to b-hBSSL (1 μg per reaction, see Table 2) in round-bottom polystyrene tubes, lx PBS (pH 7.4) was added to a final volume of 20 μl and the antibody/b-hBSSL mixtures were incubated for 30 min. at +4° C. to facilitate binding of antibodies to BSSL. Buffy coat (50 μl) was then added to each antibody/b-hBSSL mixture and incubation continued for another 30 min at +4° C. Thereafter, 2 ml of FACS lysing solution (BD Biosciences) was added and the cells were incubated for 10 min at room temperature in order to lyse erythrocytes and fix the white blood cells. The cells were then centrifuged for 5 min. at 200×g, the resulting pellets were washed by adding 2 ml of FACS buffer (1×PBS supplemented with 1% FCS and 0.1% NaN3) and centrifuged again. Finally, the supernatants were discarded and the cells were resuspended in the last drop of liquid, approximately 50 μl.
# (§3) 5 μl of BV421-labelled anti-human CD14 (BD Biosciences) and 5 μl of BB515-labelled streptavidin (BD Biosciences) was added to each tube and incubated for 30 min, at +4° C., protected from light. Thereafter, cells were washed twice with FACS buffer, resuspended in 500 μl FACS buffer, and run on BD LSRII flow cytometer (BD Biosciences). Finally, data were analyzed using FlowJo software (BD Biosciences).
# [3] = biological target: T1, Biotinylated human BSSL; experiment: flow cytometry displacement assay; 2.0 ug antibody, 1 ug b-hBSSL
# Protocol: as §2, §3
# [4] = biological target: T2, Mouse BSSL, recombinant; experiment: SPR steady state analysis, antibody immobilised, second set of experiments
# Protocol: (§4) SPR measurements were performed with a BIACORE® T200 instrument (GE Healthcare). In order to minimize avidity effects, the antibody was immobilized on the sensor surface and BSSL was injected as the analyte. Immobilization of AS20 mlgG1 was performed by amine coupling to a BIACORE® CM5 (carboxylated dextran surface) sensor chip. The chips were activated by injection of a 1:1 mixture of 0.2 M N-ethyl-N′-[(dimethylamino)peopyl]carbodiimide (EDC) and 0.05 M N-hydroxysucciminimde (NHS) with a contact time of 7 minutes. The antibody was injected for 0.2-2.8 minutes diluted to 14-50 μg/ml in 10 mM acetate-HCl pH 5.0 (set one) or pH 6.0 (set two) to reach final immobilization levels of between 560 and 830 RU. Remaining activated carboxyl groups on the sensor surface were deactivated with an injection of 1 M ethanolamine for 7 minutes.
# (§5) In the second set of experiments the running buffer was 25 mM TrisHCl, pH 7.5, 150 mM NaCl. 146 mM H₃PO₄ was used as the standard regeneration solution. The kinetic studies and the non-linear regression analysis were made according to the Single Cycle Kinetics (SCK) method of the BIACORE® T200 instrument and evaluation software. The interaction between mBSSL and AS20 mlgG1 was analyzed with steady state affinity model.
# [5] = biological target: T1, Biotinylated human BSSL; experiment: flow cytometry displacement assay; 1.0 ug antibody, 1 ug b-hBSSL
# Protocol: as §2, §3
# [6] = biological target: T3, Human BSSL (bile salt-stimulated …); experiment: SPR single cycle kinetics, antibody immobilised, second set of experiments
# Protocol: as §4, §5
# [7] = biological target: T3, Human BSSL (bile salt-stimulated …); experiment: SPR single cycle kinetics, antibody immobilised, first set of experiments
# Protocol: as §4, §5
# [8] = biological target: T2, Mouse BSSL, recombinant; experiment: SPR steady state analysis
# Protocol: as §4, §5
# [9] = biological target: T1, Biotinylated human BSSL; experiment: flow cytometry displacement assay; 3.0 ug antibody, 1 ug b-hBSSL
# In short: as §1
binder,measurement,setting,value
B1,percentage reduction of b-hBSSL binding to CD14+ monocytes,[1],72%
same,percentage reduction of b-hBSSL binding to CD14+ monocytes,[2],31%
same,percentage reduction of b-hBSSL binding to CD14+ monocytes,[3],74%
same,Kd,[4],155 nM
same,percentage reduction of b-hBSSL binding to CD14+ monocytes,[5],66%
same,Kd,[6],1.1 nM
same,koff,[6],0.00025 s⁻¹
same,kon,[6],230000 M⁻¹ s⁻¹
same,Kd,[7],2.8 nM
same,koff,[7],0.00027 s⁻¹
same,kon,[7],97000 M⁻¹ s⁻¹
same,fold weaker affinity than for human BSSL,[8],~100 fold
same,percentage reduction of b-hBSSL binding to CD14+ monocytes,[9],80%
